Measured values as given in patent US20230134571A1 (INTERNATIONAL AIDS VACCINE INITIATIVE, published 2023).

Assays:
Assay in all cases: cell-based or functional assay
[1] = biological target: HIV Env of isolate 0330.v4.c3 (clade A) (HIV)
[2] = biological target: HIV Env of isolate ZM233M.PB6 (clade C) (HIV)
[3] = biological target: HIV Env of isolate P0402_C2_11 (clade G) (HIV)
[4] = biological target: HIV Env of isolate 9004SS_A3_4 (clade A) (HIV)
[5] = biological target: HIV Env of isolate X1193_C1 (clade G) (HIV)
[6] = biological target: HIV Env of isolate BJOX009000.02.4 (clade AE) (HIV)
[7] = biological target: HIV Env of isolate 3016.v5.c45 (clade D) (HIV)
[8] = biological target: HIV Env of isolate SC05_8C11_2344 (clade B) (HIV)
[9] = biological target: HIV Env of isolate ZM135M.PL10a (clade C) (HIV)
[10] = biological target: HIV Env of isolate A07412M1.vrc12 (clade D) (HIV)
[11] = biological target: HIV Env of isolate 249MB10 (clade C) (HIV)
[12] = biological target: HIV Env of isolate BJOX010000.06.2 (clade AE) (HIV)
[13] = biological target: HIV Env of isolate 89-F1_2_25 (clade CD) (HIV)
[14] = biological target: HIV Env of isolate BF1266.431a (clade C) (HIV)
[15] = biological target: HIV Env of isolate CAP45.2.00.G3 (clade C) (HIV)
[16] = biological target: HIV Env of isolate T278-50 (clade AG) (HIV)
[17] = biological target: HIV Env of isolate C3347.c11 (clade AE) (HIV)
[18] = biological target: HIV Env of isolate CNE8 (clade AE) (HIV)
[19] = biological target: HIV Env of isolate X2088_C9 (clade G) (HIV)
[20] = biological target: HIV Env of isolate 928-28 (clade AG) (HIV)
[21] = biological target: HIV Env of isolate Ce1172_H1 (clade C) (HIV)
[22] = biological target: HIV Env of isolate X1632_S2_B10 (clade G) (HIV)
[23] = biological target: HIV Env of isolate MS208.A1 (clade A) (HIV)
[24] = biological target: HIV Env of isolate 1012_11_TC21_3257 (clade B) (HIV)

Binder	IC50 (µg/ml) with constrains [1]	IC80 (µg/ml) with constrains [1]	IC50 (µg/ml) with constrains [2]	IC50 (µg/ml) with constrains [3]	IC50 (µg/ml) with constrains [4]	IC80 (µg/ml) with constrains [4]	IC50 (µg/ml) with constrains [5]	IC50 (µg/ml) with constrains [6]	IC80 (µg/ml) with constrains [6]	IC50 (µg/ml) with constrains [7]	IC50 (µg/ml) with constrains [8]	IC50 (µg/ml) with constrains [9]	IC50 (µg/ml) with constrains [10]	IC50 (µg/ml) with constrains [11]	IC50 (µg/ml) with constrains [12]	IC80 (µg/ml) with constrains [12]	IC50 (µg/ml) with constrains [13]	IC50 (µg/ml) with constrains [14]	IC50 (µg/ml) with constrains [15]	IC50 (µg/ml) with constrains [16]	further results
ePGDM13 (antibody, V domains shown) VH: QAQLVQSGPEVRKPGTSVKVSCKNPGNTLTTYDLHWVRQVPGQGLQWMGWISHEGDKKVIVERFKAKVTIDWDRSTNTAYLQLSGLTSEDTAVYYCAKGSKHRLRDYALYDEDGALNWAVDVDYLANLEFWGQGTAVTVSS VL: DIVLTQSPLSLSVTPGESASISCKSSHSLQHGDRNNYLAWYVQKPGRSPQLLLDLASERASGVPDRFSGSGSEKDFTLKISRVETEDVGTYYCMQGRESPWTFGQGTKVDIK	0.002 µg/mL	0.008 µg/mL	0.001 µg/mL	0.001 µg/mL	> 100 µg/mL	> 100 µg/mL	0.095 µg/mL	0.265 µg/mL	1.06 µg/mL	> 100 µg/mL	2.36 µg/mL	> 100 µg/mL	0.029 µg/mL	0.032 µg/mL	0.979 µg/mL	3.92 µg/mL	0.001 µg/mL	0.004 µg/mL	0.002 µg/mL	1.6 µg/mL	IC50 (µg/ml) with constrains [17]: 0.009 µg/mL; IC80 (µg/ml) with constrains [17]: 0.037 µg/mL; IC50 (µg/ml) with constrains [18]: 0.005 µg/mL; IC80 (µg/ml) with constrains [18]: 0.022 µg/mL; IC50 (µg/ml) with constrains [19]: 64.1 µg/mL; IC50 (µg/ml) with constrains [20]: 0.019 µg/mL; IC80 (µg/ml) with constrains [20]: 0.077 µg/mL; IC50 (µg/ml) with constrains [21]: 0.061 µg/mL; IC50 (µg/ml) with constrains [22]: 0.003 µg/mL; IC50 (µg/ml) with constrains [23]: 0.027 µg/mL; IC80 (µg/ml) with constrains [23]: 0.109 µg/mL; IC50 (µg/ml) with constrains [24]: 0.065 µg/mL
ePGDM9 (antibody, V domains shown) VH: QAQLVQSGPEVRKPGTSVKVSCKNPGNTLTTYDLHWVRQVPGQGLQWMGWISHEGDKKVIVERFKAKVTIDWDRSTNTAYLQLSGLTSEDTAVYYCAKGSKHRLRDYALYDEDGALNWAVDVDYLANLEFWGQGTAVTVSS VL: DIVLTQSPLSLSVTPGESASISCKSSQSLIHGDRNNYLAWYVQKPGRSPQLLIDLASERASGVPDRFSGSGSRKDFTLKISRVETEDVGTYYCMQGRESPWTFGQGTKVDIK	0.003 µg/mL	0.01 µg/mL	0.002 µg/mL	0.001 µg/mL	> 100 µg/mL	> 100 µg/mL	0.039 µg/mL	0.234 µg/mL	0.936 µg/mL	> 100 µg/mL	1.06 µg/mL	> 100 µg/mL	0.026 µg/mL	0.007 µg/mL	0.293 µg/mL	1.17 µg/mL	0.001 µg/mL	0.002 µg/mL	0.001 µg/mL	0.506 µg/mL	IC50 (µg/ml) with constrains [17]: 0.003 µg/mL; IC80 (µg/ml) with constrains [17]: 0.011 µg/mL; IC50 (µg/ml) with constrains [18]: 0.001 µg/mL; IC80 (µg/ml) with constrains [18]: 0.002 µg/mL; IC50 (µg/ml) with constrains [19]: > 100 µg/mL; IC50 (µg/ml) with constrains [20]: 0.027 µg/mL; IC80 (µg/ml) with constrains [20]: 0.108 µg/mL; IC50 (µg/ml) with constrains [21]: 0.027 µg/mL; IC50 (µg/ml) with constrains [22]: 0.003 µg/mL; IC50 (µg/ml) with constrains [23]: 0.009 µg/mL; IC80 (µg/ml) with constrains [23]: 0.036 µg/mL; IC50 (µg/ml) with constrains [24]: 0.042 µg/mL
ePGDM5 (antibody, V domains shown) VH: QAQLVQSGPEVRKPGTSVKVSCKNPGNTLTTYDLHWVRQVPGQGLQWMGWISHEGDKKVIVERFKAKVTIDWDRSTNTAYLQLSGLTSEDTAVYYCAKGSKHRLRDYALYDEDGALNWAVDVDYLANLEFWGQGTAVTVSS VL: DFVLTQSPLSLSVTPGESASISCKSDHSLQHGDRNNYLAWYVQKPGRSPQLLIDLASERASGVPDRFSGSGSRKDFTLKIDRVEAEDVGTYYCMQGRESPWTFGQGTKVDIK	0.003 µg/mL	0.01 µg/mL	0.002 µg/mL	0.004 µg/mL	> 100 µg/mL	> 100 µg/mL	0.039 µg/mL	0.296 µg/mL	1.18 µg/mL	> 100 µg/mL	3.62 µg/mL	> 100 µg/mL	0.009 µg/mL	0.011 µg/mL	0.536 µg/mL	2.15 µg/mL	0.001 µg/mL	0.004 µg/mL	0.001 µg/mL	1.06 µg/mL	IC50 (µg/ml) with constrains [17]: 0.005 µg/mL; IC80 (µg/ml) with constrains [17]: 0.021 µg/mL; IC50 (µg/ml) with constrains [18]: 0.001 µg/mL; IC80 (µg/ml) with constrains [18]: 0.003 µg/mL; IC50 (µg/ml) with constrains [19]: 28.6 µg/mL; IC50 (µg/ml) with constrains [20]: 0.031 µg/mL; IC80 (µg/ml) with constrains [20]: 0.125 µg/mL; IC50 (µg/ml) with constrains [21]: 0.016 µg/mL; IC50 (µg/ml) with constrains [22]: 0.003 µg/mL; IC50 (µg/ml) with constrains [23]: 0.007 µg/mL; IC80 (µg/ml) with constrains [23]: 0.029 µg/mL; IC50 (µg/ml) with constrains [24]: 0.076 µg/mL
PGDM1400 (antibody, V domains shown) VH: QVHLTQSGPEVRKPGTSVKVSCKAPGNTLKTYDLHWVRSVPGQGLQWMGWISHEGDKKVIVERFKAKVTIDWDRSTNTAYLQLSGLTSGDTAVYYCAKGSKHRLRDYALYDDDGALNWAVDVDYLSNLEFWGQGTAVTVSS VL: DFVLTQSPHSLSVTPGESASISCKSSHSLIHGDRNNYLAWYVQKPGRSPQLLIYLASSRASGVPDRFSGSGSDKDFTLKISRVETEDVGTYYCMQGRESPWTFGQGTKVDIK	0.004 µg/mL	0.016 µg/mL	0.002 µg/mL	0.007 µg/mL	> 100 µg/mL	> 100 µg/mL	0.094 µg/mL	1.1 µg/mL	4.42 µg/mL	> 100 µg/mL	4.46 µg/mL	> 100 µg/mL	0.029 µg/mL	0.021 µg/mL	0.871 µg/mL	3.48 µg/mL	0.003 µg/mL	0.006 µg/mL	0.001 µg/mL	5.41 µg/mL	IC50 (µg/ml) with constrains [17]: 0.015 µg/mL; IC80 (µg/ml) with constrains [17]: 0.061 µg/mL; IC50 (µg/ml) with constrains [18]: 0.001 µg/mL; IC80 (µg/ml) with constrains [18]: 0.003 µg/mL; IC50 (µg/ml) with constrains [19]: > 100 µg/mL; IC50 (µg/ml) with constrains [20]: 0.069 µg/mL; IC80 (µg/ml) with constrains [20]: 0.277 µg/mL; IC50 (µg/ml) with constrains [21]: 0.218 µg/mL; IC50 (µg/ml) with constrains [22]: 0.034 µg/mL; IC50 (µg/ml) with constrains [23]: 0.01 µg/mL; IC80 (µg/ml) with constrains [23]: 0.041 µg/mL; IC50 (µg/ml) with constrains [24]: 0.076 µg/mL
